Laboratory results taken from patent publication US20060263802A1 (CRUCELL HOLLAND B V, published 2006).

Legend:
Test in all cases: PEPSCAN ELISA, looped peptide, 10 ug/ml
[1] = target: looped/cyclic peptide … (rabies virus strain ERA)
[2] = target: looped/cyclic peptide … (rabies virus strain ERA); remark: listed apart in the source
[3] = target: looped/cyclic peptide … (rabies virus strain ERA); remark: listed apart in the source
[4] = target: looped/cyclic peptide … (rabies virus strain ERA); remark: listed apart in the source
[5] = target: looped/cyclic peptide … (rabies virus strain ERA); remark: listed apart in the source
[6] = target: looped/cyclic peptide … (rabies virus strain ERA); remark: listed apart in the source
[7] = target: looped/cyclic peptide … (rabies virus strain ERA); remark: listed apart in the source
[8] = target: looped/cyclic peptide … (rabies virus strain ERA); remark: listed apart in the source
[9] = target: looped/cyclic peptide … (rabies virus strain ERA); remark: listed apart in the source
[10] = target: looped/cyclic peptide … (rabies virus strain ERA); remark: listed apart in the source
[11] = target: looped/cyclic peptide … (rabies virus strain ERA); remark: listed apart in the source
[12] = target: looped/cyclic peptide … (rabies virus strain ERA); remark: listed apart in the source
[13] = target: looped/cyclic peptide … (rabies virus strain ERA); remark: listed apart in the source
[14] = target: looped/cyclic peptide … (rabies virus strain ERA); remark: listed apart in the source
[15] = target: looped/cyclic peptide … (rabies virus strain ERA); remark: listed apart in the source
[16] = target: looped/cyclic peptide … (rabies virus strain ERA); remark: listed apart in the source
[17] = target: looped/cyclic peptide … (rabies virus strain ERA); remark: listed apart in the source
[18] = target: looped/cyclic peptide … (rabies virus strain ERA); remark: listed apart in the source
[19] = target: looped/cyclic peptide … (rabies virus strain ERA); remark: listed apart in the source
[20] = target: looped/cyclic peptide … (rabies virus strain ERA); remark: listed apart in the source
[21] = target: looped/cyclic peptide … (rabies virus strain ERA); remark: listed apart in the source
[22] = target: looped/cyclic peptide … (rabies virus strain ERA); remark: listed apart in the source
[23] = target: looped/cyclic peptide … (rabies virus strain ERA); remark: listed apart in the source
[24] = target: looped/cyclic peptide … (rabies virus strain ERA); remark: listed apart in the source
[25] = target: looped/cyclic peptide … (rabies virus strain ERA); remark: listed apart in the source
[26] = target: looped/cyclic peptide … (rabies virus strain ERA); remark: listed apart in the source
[27] = target: looped/cyclic peptide … (rabies virus strain ERA); remark: listed apart in the source
[28] = target: looped/cyclic peptide … (rabies virus strain ERA); remark: listed apart in the source
[29] = target: looped/cyclic peptide … (rabies virus strain ERA); remark: listed apart in the source
[30] = target: looped/cyclic peptide … (rabies virus strain ERA); remark: listed apart in the source
[31] = target: looped/cyclic peptide … (rabies virus strain ERA); remark: listed apart in the source
[32] = target: looped/cyclic peptide … (rabies virus strain ERA); remark: listed apart in the source
[33] = target: looped/cyclic peptide … (rabies virus strain ERA); remark: listed apart in the source
[34] = target: looped/cyclic peptide … (rabies virus strain ERA); remark: listed apart in the source
[35] = target: looped/cyclic peptide … (rabies virus strain ERA); remark: listed apart in the source
[36] = target: looped/cyclic peptide … (rabies virus strain ERA); remark: listed apart in the source
[37] = target: looped/cyclic peptide … (rabies virus strain ERA); remark: listed apart in the source
[38] = target: looped/cyclic peptide … (rabies virus strain ERA); remark: listed apart in the source
[39] = target: looped/cyclic peptide … (rabies virus strain ERA); remark: listed apart in the source
[40] = target: looped/cyclic peptide … (rabies virus strain ERA); remark: listed apart in the source
[41] = target: looped/cyclic peptide … (rabies virus strain ERA); remark: listed apart in the source
[42] = target: looped/cyclic peptide … (rabies virus strain ERA); remark: listed apart in the source
[43] = target: looped/cyclic peptide … (rabies virus strain ERA); remark: listed apart in the source
[44] = target: looped/cyclic peptide … (rabies virus strain ERA); remark: listed apart in the source
[45] = target: looped/cyclic peptide … (rabies virus strain ERA); remark: listed apart in the source
[46] = target: looped/cyclic peptide … (rabies virus strain ERA); remark: listed apart in the source
[47] = target: looped/cyclic peptide … (rabies virus strain ERA); remark: listed apart in the source
[48] = target: looped/cyclic peptide … (rabies virus strain ERA); remark: listed apart in the source
[49] = target: looped/cyclic peptide … (rabies virus strain ERA); remark: listed apart in the source
[50] = target: looped/cyclic peptide … (rabies virus strain ERA); remark: listed apart in the source
[51] = target: looped/cyclic peptide … (rabies virus strain ERA); remark: listed apart in the source
[52] = target: looped/cyclic peptide … (rabies virus strain ERA); remark: listed apart in the source
[53] = target: looped/cyclic peptide … (rabies virus strain ERA); remark: listed apart in the source
[54] = target: looped/cyclic peptide … (rabies virus strain ERA); remark: listed apart in the source
[55] = target: looped/cyclic peptide … (rabies virus strain ERA); remark: listed apart in the source
[56] = target: looped/cyclic peptide … (rabies virus strain ERA); remark: listed apart in the source
[57] = target: looped/cyclic peptide … (rabies virus strain ERA); remark: listed apart in the source
[58] = target: looped/cyclic peptide … (rabies virus strain ERA); remark: listed apart in the source
[59] = target: looped/cyclic peptide … (rabies virus strain ERA); remark: listed apart in the source
[60] = target: looped/cyclic peptide … (rabies virus strain ERA); remark: listed apart in the source
[61] = target: looped/cyclic peptide … (rabies virus strain ERA); remark: listed apart in the source

B1: human monoclonal antibody CRJB (antibody, V domains shown)
VH: QITLKETGPTLVKPTQTLTLTCTFSGFSLSTSGVGVGWIRQPPGKALEWVTLIYWDDDKRYSPSLENRVTIRKDTSKNQVALTMTNMDPLDTGTYYCAHRQHISSFPWFDSWGQGTLVTVSS
VL: SYVLTQPPSVSVAPGKTARINCGGNNIEYRSVHWYQQKSGQAPVAVIYDNSDRPSGIPERFSGSKSGNTATLTISRVEAGDEADYYCQVWDISSDVVFGGGTKLTVLG
With B1 the OD [1] was 80 OD, the OD [2] was 79 OD and the OD [3] was 101 OD. For the same binder, the OD [4] was 93 OD, the OD [5] was 104 OD and the OD [6] was 104 OD. The OD [7] was 42 OD, the OD [8] was 92 OD and the OD [9] was 91 OD. It also gave an OD [10] of 123 OD, an OD [11] of 91 OD and an OD [12] of 93 OD. The OD [13] was 106 OD, the OD [14] was 99 OD and the OD [15] was 96 OD. It also gave an OD [16] of 93 OD, an OD [17] of 129 OD and an OD [18] of 97 OD. It also gave an OD [19] of 90 OD, an OD [20] of 96 OD and an OD [21] of 98 OD. It also gave an OD [22] of 92 OD, an OD [23] of 76 OD and an OD [24] of 102 OD. For the same binder, the OD [25] was 106 OD, the OD [26] was 103 OD and the OD [27] was 134 OD. It also gave an OD [28] of 85 OD, an OD [29] of 79 OD and an OD [30] of 100 OD. For the same binder, the OD [31] was 78 OD, the OD [32] was 92 OD and the OD [33] was 102 OD. It also gave an OD [34] of 116 OD, an OD [35] of 104 OD and an OD [36] of 82 OD. The OD [37] was 90 OD, the OD [38] was 111 OD and the OD [39] was 92 OD. The OD [40] was 113 OD, the OD [41] was 104 OD and the OD [42] was 90 OD. It also gave an OD [43] of 97 OD, an OD [44] of 101 OD and an OD [45] of 97 OD. It also gave an OD [46] of 64 OD, an OD [47] of 93 OD and an OD [48] of 100 OD. It also gave an OD [49] of 100 OD, an OD [50] of 100 OD and an OD [51] of 89 OD. It also gave an OD [52] of 118 OD, an OD [53] of 97 OD and an OD [54] of 105 OD. For the same binder, the OD [55] was 105 OD, the OD [56] was 76 OD and the OD [57] was 99 OD. The OD [58] was 86 OD, the OD [59] was 87 OD and the OD [60] was 93 OD. It also gave an OD [61] of 85 OD.
